This series addresses T1, MEX-5 TZF domain (236-350) (Caenorhabditis elegans, UniProt Q9XUB2 Q9XUB2:236-350).
T1 sequence: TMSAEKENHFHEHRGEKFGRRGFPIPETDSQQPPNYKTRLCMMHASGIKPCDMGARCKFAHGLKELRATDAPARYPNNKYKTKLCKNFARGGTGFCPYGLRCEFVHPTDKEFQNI
Briefly: EMSA; 120 nM protein, 2-3 nM RNA; compound dose response (compound E IC50 2.0 uM). As to conditions: tags: N-terminal MBP (pMal-c, NEB); ORFeome clone, Open Biosystems; label: 3'-fluorescein. The protocol: A further dose response assay was performed on select compounds of the invention as described below. A sub-saturating concentration of MEX-5 or POS-1 (120 nM) was equilibrated with limiting fluorescein labeled RNA (2-3 nM, TCR2 RNA or MEX-3 UTR fragment RNA respectively) in the presence of varying concentrations of compound. Following equilibration, the reactions were loaded onto a 5% slab polyacrylamide gel and subjected to electrophoresis for about 1 hour to separate protein-RNA complex from free RNA. The gel was scanned on a FUJI FLA-5000 imager, and the fraction of bound RNA determined by dividing the intensity of the bound RNA by the intensity of the bound RNA plus the free RNA. The fraction of […] was plotted as a function of compound concentration and fit to a sigmoidal dose response function in order to determine the IC₅₀, the concentration that gives half maximal inhibition.
(In general: In EMSA bound probe runs differently from free probe, usually more slowly.)

B1: TCR2 (ssRNA)
RNA: UUUCUUUAUAACUUGUUACAAUUUUUGAAA
For B1, the binding result was “binds”.

The values above are taken from patent publication US20130217685, “COMPOUNDS FOR MODULATING RNA BINDING PROTEINS AND USES THEREFOR” (UNIVERSITY OF MASSACHUSETTS, published 2013).
